Reference: the nanobody polyreactivity screen of Harvey et al. (2022)

Test: yeast display, Sf9 membrane polyspecificity reagent, FACS + sequencing; frameworks hold sequencing errors
How it was run: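 After 36–48 hours of galactose induction, yeast (Saccharomyces cerevisiae BJ5465) displaying a synthetic nanobody library were stained at 4 °C for 1 hour with 10% biotinylated, detergent-solubilized Sf9 membrane reagent. Streptavidin microbeads enriched the stained cells before FACS sorting into low and high (top ~1%) gates on anti-HA and streptavidin fluorescence. Each clone's polyreactivity label reflects its gate of origin.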
With “QVQLVESGGGLVQAGGSLRLSCAASGFIFGPNAMGWYIQAPGKERELVAAITWSSGRTYYADSVKGRFTISRDNAKNTVYLQMNSLKPEDTAVYYCAADFSRAVLRGNYWGQGTQVTVSS” the “polyreactivity (PSR sort gate)” value was “high polyreactivity”. In the case of “QVQLVESGGGLVQAGGSLRLSCAASGIIFGYYAMGWSRQEPGKERELVAAINQDGSSTYYADSVKGRFTISRDNAKNTVYLQMNSLKPEVTAVYYCNARGVPRQDARMGYWGEGTQVTVSS”, the “polyreactivity (PSR sort gate)” value was “low polyreactivity”. In the case of “QVQLVESGGGLDQAGRSLRLSFAASGRTFDLYPMGWYRQAPGKERELVAAITNGETYADSVKGRFTISLDDAKNTVYLQMNSLKPEDTAVYYCAKYDPWFWRAEDYWGQGTQVTVSS”, the “polyreactivity (PSR sort gate)” value was “low polyreactivity”. With “QVQLVESGGGLVQAGGSLRLSCAASGTILSFNAMAWYRQAPGKERELVAAMSRGGSTNYADSVKGRFTISRDNEKNTVYLQMNCLIPEDTAVYYCAALRPYGKEDVSDGGMDYWGQGTQVTVSS” the “polyreactivity (PSR sort gate)” value was “high polyreactivity”. In the case of “QFQLVESGGGLVQAGGSLRLSCADSGSTFFNNAMGWYRHAPGKERELVAAITSSGGSTYYADSVKGRFSISRDNAKNTVYLQMNSLKPEDTAVYYCNKKSALYRRYDYWGQGTQVTVSS”, the “polyreactivity (PSR sort gate)” value was “low polyreactivity”. With “QVQLVESGGGLVQAGGSLRLSCAASGRTFDRNTMGWYRQAPGKQRELVAAISSSGGSTYYADSVKGRFTISRDNAKNTVYLQMNSLKPEDTAVYYCAARQSPNRWMGYWGQGTQVTVSS” the “polyreactivity (PSR sort gate)” value was “high polyreactivity”. With “QVQLVESGAGLVHAGGSLRLSCASSGSIFNVYAMGWYRQAPGKERELVAAIRSSGGSTYYADSVKGRFTISRDKAKNTVNLQMNSLKPEDTAVYYCAAVTRAIRTWRMYYWGQGTQVTVSS” the “polyreactivity (PSR sort gate)” value was “high polyreactivity”. With “QVQLVESGGGLVQAGGSLRLSCAASGFIFRAYTMGWYRQAPGKERELVAAITSSGGRTYYADSVKGRFTISRDNAKNTVYLQMNSLKPEDTAVYYCATVYAKWKQFDYWGQGTQVTVSS” the “polyreactivity (PSR sort gate)” value was “high polyreactivity”. In the case of “QVQLVESGGGLVQAGGSLRLSCAASGLTFGGNAMGWYRQAPGKERELVAAISWNGGRTYYADSVKGRFTISRDNAKNTVDLQMNSLKPEDTAVYYCNTPVFSKSSRKYYYWGQGTQVTVSS”, the “polyreactivity (PSR sort gate)” value was “high polyreactivity”. For “QVQLVESGGGLVQAGGSLRLSCAASGRTFSRNAMGWYRQAPGKERELVAAISQSGGRTYYADSVKGRFTISRDNAKNTVYLQMNSLKPEDTAVYYCAAAGTRKALTEYDYWGQGTQVTLSS”, the “polyreactivity (PSR sort gate)” value was “high polyreactivity”. With “QVQLVESGGGLVQAGGSLRLSCAATGRTFYWNAMGWYRQAPGKERELVAAIDSSGGSTYYADSVKGRFTISRDNAKNTVYLQMNSLKPEDTAVYYCNKDYPTYDYDYWGQGTQVTVSS” the “polyreactivity (PSR sort gate)” value was “low polyreactivity”. In the case of “QVQLVESGGGLVQAGGSLRLSCAASGFTFYRYAMGWYRQAPGKERELVAAITRTGGSTYYADSVKGRFTISRDIAKNTVYLQMISLKPEDTAVYYCAARVHGTGTLKYPNYYWGQGTQVTVSS”, the “polyreactivity (PSR sort gate)” value was “high polyreactivity”. With “QVQLVESGGGLVQAGGRLRLSCAASGAIFDRNVMGWYSQAPGQERELVAAISGSGGRTYYADSVKGRFTISRDNAKNTVYLQMNSLKPEDTAVYYCAARAFRVVPGGDYWGQGTQVTVSS” the “polyreactivity (PSR sort gate)” value was “high polyreactivity”. With “QVQLVESGGGIVQAGGSLRLSCAASGFIFPDYGMGWYRQAPGKERELVAAISRNGVSTYYADSVKGRFTISRDNAKNTVYLQMNSLKPEDTAVYYCAARYYRIRRVSKSGYYWGQGTQVTVSS” the “polyreactivity (PSR sort gate)” value was “low polyreactivity”. For “QFQLVESGGGLVQAGGSLRLSCAASGSIFSVYTKGRYRQAPGKERELVAAISTGGGSTYYADSVKGRFTISRDNAKNTVYLQMNSLKPEDTALYYCATDYGWAPSYWYDSCGQGTQVTVSS”, the “polyreactivity (PSR sort gate)” value was “low polyreactivity”. With “QVQLVESGGGLVQAGGSLRLSCAASGSTFYLNTMGWYRQAPGKERELVASISRSGGTTYYADSVKGRFTISRDNAKNTVYLQMNSLKPEDTAVYYCAKRYYFTHAYSRTFYYWGQGTQVTVSS” the “polyreactivity (PSR sort gate)” value was “high polyreactivity”. In the case of “QVQLVESGGGLVQAGGSLRLSCAASGSIFSVNAMGWYRQAPGKERELVATITAGGGSTNYADSVKVRFTISRDNAKNTVYLQMNSLKPEDTAVYYCAADYWYVSWYDYWGQGTQVTVSS”, the “polyreactivity (PSR sort gate)” value was “low polyreactivity”. For “QVQLVESGGGLVQAGGSLRLSCAASGSTIYGYTMGWYRQAPGKEREMVAVITSGGSTYFADSVKGRFTISRDNAKNTVYLQMNSLKPEVTAVYYCAKRYGYTAYGRPWRIGRTYDYWGQGTQVTVSS”, the “polyreactivity (PSR sort gate)” value was “low polyreactivity”. With “QVQLVESGGGLVQAGGSLRLSCAASGSIFTDYTMGWSRQAPGKERELVAAISWIGDSTDYADSVKGRFTISRDNAKNTVYLQMNSLKPEDTAVYYCAKSRAGRYNDYDYWGQGTQVTVSS” the “polyreactivity (PSR sort gate)” value was “low polyreactivity”. With “QVQLVDSGGGLVQAGGSLRLSCAASGRIFRYYAMGWYRQAPGKERELVAGINQSGGSTYYADSVKGRFTISRDNAKNTVYLQMNSLKPEDTAVYYCAAKVSWPKYDYWGQGTQVTVSS” the “polyreactivity (PSR sort gate)” value was “low polyreactivity”. With “QVQLVESGGGLVQAGGSLRLSCAASGITFYGYAMGWYRPAPGKERELVARITISGRTNYADYVKGRFTISRDNAKNTVYLQMNSLKPEDTAVYYCATLVHWSYPYYYWGQGTQVTVSS” the “polyreactivity (PSR sort gate)” value was “high polyreactivity”. For “QVQLVESGGGLVQAGGSLRLSSAASGRIFQGNSMGWYRQAPGKERELVAAITTSGGSTYYADSVKGRFTISRDNAKNTVYLQMNSLKPEDTAVYYCNVDPRKRSYDYWGQGPQVTVSS”, the “polyreactivity (PSR sort gate)” value was “high polyreactivity”. In the case of “QVQLVESGGGLVQAGGSLRLSCAASGITFRRNAMGWYRQAPGKERELVAAITSRGGSTYYADSVKGRFTISRDNAKNTVYLQMNSMKPEDTAVYYCNAGGVDRVDRDYWGQGTQVTVSS”, the “polyreactivity (PSR sort gate)” value was “high polyreactivity”. In the case of “QVQLVESGGGLVQAGGSLRLSCAASGRTSRLYAMGWYRQAPGKERELVATITRSAGDTYYADSVKGRFTISRDNAKNTVYLQMNSLKPEDTAVYYCNARAAKWSRYDYWGQGTQVTVSS”, the “polyreactivity (PSR sort gate)” value was “high polyreactivity”. With “QVQLVESGGGLVQAGGSLRLSCAASGLTFSPYAMGWYRQAPGKERELVAAISYSGGSTYYADSVKGRFTISRDNAKNTVYLQMISLKPEDTAVYYCAVVVPNLLRDGRRMYYWGQGTQVTVSS” the “polyreactivity (PSR sort gate)” value was “high polyreactivity”. For “QVKLVESGGGLVQAGRSLRLSCAASGFTFSANTMGWYRQAPGKERELVAAITRGGRTYYADSVKGRFTISRDNAKNTVYLQMNSLKPEDTAVYYCAKRATWYTVTREGYWGQGTQVTVTS”, the “polyreactivity (PSR sort gate)” value was “high polyreactivity”. With “QVLLVESGGGLVQAGGSLRLSCAASGRTLPPNAMGWYRQAPGKERELGAGITWSGGSTYSADSVKGRFTISRDNAKNTVYLQMNSLKPEDTAVYYCAASRSFPGYGLYYYWGQGTQVTVSS” the “polyreactivity (PSR sort gate)” value was “low polyreactivity”. With “QVQLVESGGGLVQAGGSLRLSCAASGRTIGLNGMGWYRQAPGKERELVAGISLSGGSTNYADSVKGRFTISRDNAKNTVYLQMNSLKPEDTAVYYCAADFVYYVVNDFGWSYAYEYWGQGTQVTVSS” the “polyreactivity (PSR sort gate)” value was “low polyreactivity”. For “QVQLVESGGGLVQAGGSLRLSCAASGRTFAWYAMGWYRQAPGKERELVAAITTRGSGTYYADSVKGRFTISRDNAKNTVYIQMNSLKPEDTAVYYCAKDPITVTTVDERVYYWGQGTQVTVSS”, the “polyreactivity (PSR sort gate)” value was “low polyreactivity”. For “QVQLVESGGGLVKAGGSLRLTCAASGSIFRYYAMGWYRQAPGKERELVAAISGSGGSTYYADSVKGRFTISRDNAKNTVYLQMNSLKPEDTAVYYCARVRGCYDKMYYWGQGTQVTVSS”, the “polyreactivity (PSR sort gate)” value was “high polyreactivity”. In the case of “QDQLVESGGGLVQAGGSLRLICAASGSTFDSYAMGWYRQAPGKERELVAAITRSVGSTYYADSVKGRFTISRDNAKYTVYLLMKSLKPEDTAVYYCAARGEWAIYVEFDYWGQGTQVTVSS”, the “polyreactivity (PSR sort gate)” value was “low polyreactivity”. In the case of “QVHLVDSGGGLVQAGGSLRLSCAASGRIYYVYAMGGYRQAPGQERELVAGITSTGGSTYYADSVKGRFTISRDNAKSTVYLQINRLNPVDTAVYYGATDYGYYDYWGQGTQVTVSS”, the “polyreactivity (PSR sort gate)” value was “low polyreactivity”. For “QVQLVESGGGLVQAGGSLRLSCAASGRIFSYNAMGWYRQAPGKERELFAAISSDGSTYYADSVKGRFTISRDNAKNTVYLEMNSLKPEDTAVYYCAARQVVWFVYTTAQVGSYKVNYWGQGTQVNVSS”, the “polyreactivity (PSR sort gate)” value was “low polyreactivity”. In the case of “QVQLVESGGGLVQAGCSLRLSCAASGFIFYDYDMGWYRQAPGKERELVAAITYSGGSTYYADSVKGRFTISRDNAKNTVYFQMNSLKPEDTAVYYCAAVKSRYAEAVDYYYWGQGTQVTVSS”, the “polyreactivity (PSR sort gate)” value was “low polyreactivity”. With “QVQLEESGGVLVQAGGSLRLSCAASGLTLYRNAMGWYRQAPGKERELVATINFSGGSTYYADSVKGRFTISRDNAKNTVYLQMNSLKPEDTAVYYCNARGYWHYSPTKFDYWGQGTQVTVSS” the “polyreactivity (PSR sort gate)” value was “low polyreactivity”. In the case of “QVQLVESGGGLVQAGGSLRLSCAASGFTFYWYAMGWYRQAPGKERELVATINWRGDTYYADSVKGRFTISRDNAKNTVYLQMNSLKPEDTAVYYCAATKRLAPRPLRLGYGSYNFCGQGTQVTVSS”, the “polyreactivity (PSR sort gate)” value was “high polyreactivity”. In the case of “QVQLQESGGGLVQAGGSLRLSCAASGYISHADEMGWYRKAPGKEHELVASISNGGSTNYADSVKGRFTISRDNAKNTVYLQMNSLKSEDTAVYYCAAWTGQVDIHYYWGMGTQVTVSS”, the “polyreactivity (PSR sort gate)” value was “low polyreactivity”. With “QVQLVESGGGLVQAGGSLRLSCAASGSIFEQNAMGWYRQAPGKERELVAGINEGGGSTYYADSVKGRFTISRDNAKNTVYLQMNSLKPEDTAVYYCAATLGSRWAIYDYWGQGTQVTVSS” the “polyreactivity (PSR sort gate)” value was “high polyreactivity”. In the case of “QVQLVESGGGLVQAGGTLRLSCAASGFIFGINAMGWYRQAPGQERELVAAIATGDRTNYADSVTGRFTISRDNAKNTVYLQMNSLKPEHTAVYYCAAGVHWDRGDYWGQGTQVTVST”, the “polyreactivity (PSR sort gate)” value was “low polyreactivity”. In the case of “QDQLVESGGGLVQAGGSLRLSCAASGRTFKGYAMGWYRQAPGKERELVAAIDSDGSTSYADSVKGRFTISRDNAKNTVYLQMISLKPEDTAVYYCAAAGQRPYEKGDYWGQGTQVTVSS”, the “polyreactivity (PSR sort gate)” value was “low polyreactivity”. For “QVQLVESGGGLVQAGGSLRLSCAASGGTFFWYGMGWYRQAPGKERELVAAITSGGSTYYADSVKGRFTISRDNAKNTVYLQMNSLKPEDTAVYYCATENRFRGWYPTRSSLPYEYWGQGTQVTVSS”, the “polyreactivity (PSR sort gate)” value was “low polyreactivity”. With “QVQLVESGGGLVQAGGSLRLSCAASGFTFYSYAMGWYRQAPGKERELFAAITQSGGSTYYADSVKGRFTISRDNAKNTVYLQMNSLKPEDTAVYYCAADIYNDYDYGYYYWGQGTQVTVSS” the “polyreactivity (PSR sort gate)” value was “low polyreactivity”. For “QVQLVESGGGLDQAGGSLRLTCAASGIIFFEYAMGWYRQAPGKERELVAAISWRGGRTYYADSVKGRFTISRDNAKNSVYLQMNSLKPEDTAVYYCAADFRSWPYYPWSKYDYWGQGTQVTVSS”, the “polyreactivity (PSR sort gate)” value was “high polyreactivity”.
